Test results published in article PMC8437459.

Target: T1, MgaSpn (Streptococcus pneumoniae D39 (JH1900)) (UniProt A0A0H2ZN44)
T1 sequence: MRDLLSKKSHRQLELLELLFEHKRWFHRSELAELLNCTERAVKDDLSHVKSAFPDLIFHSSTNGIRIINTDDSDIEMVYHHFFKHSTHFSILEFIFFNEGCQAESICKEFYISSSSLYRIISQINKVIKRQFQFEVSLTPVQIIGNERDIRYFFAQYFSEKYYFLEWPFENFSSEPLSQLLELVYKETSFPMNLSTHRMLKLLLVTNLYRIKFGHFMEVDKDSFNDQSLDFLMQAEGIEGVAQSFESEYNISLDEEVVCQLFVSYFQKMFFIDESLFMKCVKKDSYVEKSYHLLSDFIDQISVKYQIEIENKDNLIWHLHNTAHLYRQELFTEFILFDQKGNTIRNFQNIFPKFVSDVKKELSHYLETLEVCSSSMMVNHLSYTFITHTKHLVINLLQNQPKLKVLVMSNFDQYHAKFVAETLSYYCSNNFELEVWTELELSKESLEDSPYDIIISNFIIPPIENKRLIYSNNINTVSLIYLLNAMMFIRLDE
Assay: EMSA

Sequence: TACACATCTGCTTCTAAAATATTGTTAGAAAACGATTTGACTGTCCTGATCAATTTGTCATGTTCTTATTTCATTTTACTATATTTTTGGTTCGCGGGAAGTCTACTAAGATACTTAAAGATGCAGATAGTGAAAAAAGGTGTAGACATTACCGTAAAAAAGTGATATAATCGTAAGATGTTCAATGTATAGGTGTTAATCATGAGTAGACGTTTTAA (double strand) [Pcps probe (EMSA)]
- binding: binds
